Patent US20250011410A1 (INVETX, published 2025)

Tests used:
[1] = biological target: canine NGF with a strep-tag at the C-terminus (canine, UniProt A0A8I3PYI3 122-241); experiment: cell-based or functional assay
[2] = biological target: T1, human NGF (R&D Systems, 256-GF-100/CF) (human, UniProt P01138 122-241); experiment: multiplexed bead assay, flow cytometry
T1 construct: Conjugated to beads or fluorescently labelled; also called human NGF antigen

[3] = biological target: T2, NT-3 (R&D Systems, 267-N3-025/CF) (UniProt P20783 139-257); experiment: multiplexed bead assay, flow cytometry
T2 sequence (looked up): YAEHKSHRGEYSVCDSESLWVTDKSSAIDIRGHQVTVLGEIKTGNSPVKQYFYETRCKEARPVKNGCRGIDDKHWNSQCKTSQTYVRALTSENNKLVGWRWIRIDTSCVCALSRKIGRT

[4] = biological target: T3, BDNF (R&D Systems, 248-BDB-050/CF) (UniProt P23560 129-247); experiment: multiplexed bead assay, flow cytometry
T3 sequence (looked up): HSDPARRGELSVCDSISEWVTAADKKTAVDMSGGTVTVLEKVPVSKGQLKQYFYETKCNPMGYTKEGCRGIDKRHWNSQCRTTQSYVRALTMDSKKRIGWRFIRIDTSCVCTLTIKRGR

[5] = biological target: T4, canine NGF tagged at the C-terminus with the Flag tag (canine, UniProt A0A8I3PYI3 122-241); experiment: SPR, antibody amine-coupled, NGF analyte
T4 construct: Baculovirus expression; also called feline NGF (processed form identical)

[6] = biological target: T4, canine NGF tagged at the C-terminus …; experiment: SPR; antibody amine-coupled to HC30M sensor chip, canine NGF-Flag as analyte
canine TrkA-Fc = biological target: T5, canine TrkA-Fc (canine; human, UniProt A0A8I3P078 33-423); experiment: SPR, receptor-Fc captured on anti-human Fc chip
T5 construct: extracellular domain; also called Trk-Fc; canine TrkA in a dimer format; not shown: human IgG1 Fc, UniProtKB P01857

[7] = biological target: T4, canine NGF tagged at the C-terminus …; experiment: SPR Biacore T200, antibody captured on protein A, NGF analyte
[8] = biological target: T4, canine NGF tagged at the C-terminus …; experiment: SPR Biacore T200, antibody captured on protein A, NGF analyte; fitted KD, one-to-one model

T5 sequence (A0A8I3P078 entry or part of it): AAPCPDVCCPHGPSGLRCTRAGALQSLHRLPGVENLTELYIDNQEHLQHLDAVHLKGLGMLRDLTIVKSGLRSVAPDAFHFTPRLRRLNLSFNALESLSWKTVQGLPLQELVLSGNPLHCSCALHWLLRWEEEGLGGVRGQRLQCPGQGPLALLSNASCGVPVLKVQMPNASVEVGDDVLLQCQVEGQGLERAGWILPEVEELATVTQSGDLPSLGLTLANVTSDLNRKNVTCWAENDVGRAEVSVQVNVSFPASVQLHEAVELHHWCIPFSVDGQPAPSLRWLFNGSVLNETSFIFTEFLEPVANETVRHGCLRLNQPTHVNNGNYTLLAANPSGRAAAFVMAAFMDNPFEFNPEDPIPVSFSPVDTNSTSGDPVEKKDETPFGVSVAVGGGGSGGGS
T1 sequence (P01138 122-241 limits assumed): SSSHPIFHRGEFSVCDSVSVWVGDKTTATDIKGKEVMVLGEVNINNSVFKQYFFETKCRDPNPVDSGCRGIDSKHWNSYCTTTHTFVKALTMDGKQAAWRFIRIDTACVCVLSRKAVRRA

| Binder | IC50 (read off the curve): % inhibition of canine NGF-driven TF-1 cell proliferation [1] [nM] | fold over background (MFI normalized over isotype control) [2] [fold] | binding result [3] | binding result [4] | Kd [5] [nM] | koff [5] [s⁻¹] | kon [5] [M⁻¹ s⁻¹] | Kd [6] [nM] | binding result (canine TrkA-Fc) | koff [7] [s⁻¹] | kon [7] [M⁻¹ s⁻¹] | Kd [8] [nM] |
| --- | --- | --- | --- | --- | --- | --- | --- | --- | --- | --- | --- | --- |
| rat antibody 2166 (antibody, V domains shown) VH: QVQLKESGPGLVQPSQTLSLTCTVSGLSLTSNSVSWIRQPPGKGLEWMGVIWSNGGTDYNSAIESRLSINRDTSKSQVFLKMNSLQPEDTAMYFCASIYYYDADYLHWYFDFWGPGTMVTVSS VL: DIQMTQSPASLSASLGETVSIECLASEGISNSLAWYQLKPGKSPQFLIYATSSLQDGVPSRFSGSGSGTQYSLKISGMQPEDEGVYYCQQGYKFPLTFGSGTKLKIK | ~0.03 | > 59 | no binding | no binding | ≤ 0.0042 | ≤ 1e-05 | 2.38e+06 | 0.042 | – | – | – | – |
| canine 2166 chimeric antibody (antibody, V domains shown) VH: QVQLKESGPGLVQPSQTLSLTCTVSGLSLTSNSVSWIRQPPGKGLEWMGVIWSNGGTDYNSAIESRLSINRDTSKSQVFLKMNSLQPEDTAMYFCASIYYYDADYLHWYFDFWGPGTMVTVSS VL: DIQMTQSPASLSASLGETVSIECLASEGISNSLAWYQLKPGKSPQFLIYATSSLQDGVPSRFSGSGSGTQYSLKISGMQPEDEGVYYCQQGYKFPLTFGSGTKLKIKR | – | – | – | – | – | – | – | – | no binding (tested: 12.5 nM to 100 nM) | < 1e-05 | 1.2e+07 | ≤ 0.05 |
